Experimental data as given in patent publication US20230203172A1 (SHANGHAI MABGEEK BIOTECH, published 2023).

Tests used:
[1] = biological target: T1, human IL-4R alpha on cells (TF-1 cells; human peripheral blood mononuclear cells) (human, UniProt P24394 26-825); assay: cell-based or functional assay
hIL-4R alpha-ECD-Flag = biological target: T2, hIL-4R alpha-ECD-Flag (human, UniProt P24394 26-232); assay: SPR, Biacore T200, antibody captured on Protein-A chip, hIL-4R alpha-ECD-Flag as analyte
T2 construct: range 26-232; Analyte of the Biacore experiment
Experimental: The affinity of six purified humanized antibodies was detected by Biacore T200 (GE healthcare), with the reference antibody Dupilumab as a control. The specific experimental method was as follows: a Protein-A CMS sensor chip (GE healthcare) was used, with FC1 (Flow cell 1) as a reference channel, and FC2 (Flow cell 2) as a sample channel. Humanized antibodies or control antibody were captured in the FC2 channel, and then hIL-4R alpha-ECD-Flag at different concentrations was injected. Cycling conditions were as follows: an analyte was injected into all channels of FCs at 50 μl/min for 4 min, with a dissociation time of 20 min, and 6M guanidine hydrochloride (Sinopharm Chemical Reagent Co., Ltd.) was injected at a rate of 10 μl/min for 30 s for surface regeneration. Then, signal differences and affinity for interaction between captured antibodies and non-captured antibodies were calculated by Biacore T200 Evaluation Software Ver 1.0.

hIL-4R alpha-ECD-Fc = biological target: T3, hIL-4R alpha-ECD-Fc (human, UniProt P24394 26-232); assay: ELISA, plate coated with 1 ug/ml hIL-4R alpha-ECD-Fc
T3 construct: range 26-232; hFc at the C-terminus of the ECD; also called hIL4R alpha-ECD-hFc; hIL-4R alpha-Fc antigen
Experimental: The titer was tested by ELISA: an ELISA plate was coated with the hIL-4R alpha ECD-Fc antigen at a concentration of 1 μg/ml, 100 μl per well, and coated overnight at 4° C. The plates were washed twice with PBST (PBS containing 0.5% Tween-20) and then pat-dried. Each well was blocked with 200 μl of coating solution containing 1% BSA, blocked at room temperature for 4 h, pat-dried, and stored in a refrigerator at −20° C. for later use. During testing, 100 μl of mouse serum at different concentrations was added to each well of the ELISA plate, with two replicate wells, for incubation at room temperature for 1.5 h. The wells were washed with PBST for 3 times and then pat-dried. Then 100 μl of rabbit anti-mouse IgG labeled with HRP diluted with PBST by 1:10000 (purchased from Sigma) was added and the plates were incubated at room temperature for 1 h. The wells were washed with PBST for 3 times and then pat-dried. Then 100 μl of chromogenic solution was added to each well (an ELISA chromogenic solution A was mixed with a chromogenic solution B at a volume ratio of 1:1 before use) for a chromogenic reaction, and then 100 μl of 2M H2SO4 stopping solution was added to each well to terminate the reaction. The OD value of each well was immediately measured at 450 nm with a microplate reader (Molecular Device).
Optimized murine anti-hIL-4R alpha monoclonal antibodies were purified by a ProteinG affinity chromatography column and quantified by BCA. The EC50 of anti-hIL-4R alpha monoclonal antibodies binding to hIL-4R alpha was tested by ELISA. The testing method is as described in Example 3. An ELISA plate was coated with 1 μg/ml of hIL-4R alpha-ECD-Fc antigen, and then murine anti-hIL-4R alpha monoclonal antibodies at different concentrations were added for testing.

[2] = biological target: T1, human IL-4R alpha on cells (TF-1 cells; …); assay: cell-based or functional assay; remark: listed apart in the source

Row | Binder | IC50 (ng/ml), inhibition of IL-4-induced TF-1 cell proliferation [1] [ng/mL] | Kd (hIL-4R alpha-ECD-Flag) [nM] | koff (hIL-4R alpha-ECD-Flag) [s⁻¹] | kon (hIL-4R alpha-ECD-Flag) [M⁻¹ s⁻¹] | EC50 (hIL-4R alpha-ECD-Fc) [µg/mL] | IC50 (ng/ml), inhibition of IL-4-induced TF-1 proliferation [2] [ng/mL]
1 | humanized anti-hIL-4R alpha monoclonal antibody 59-Hu (antibody, human IgG4 S228P, kappa, V domains shown, Humanized, human IgG4 constant region; expressed in HEK293, purified on ProteinA) VH: EVQLVESGGGLVQPGGSLRLSCAASGFTFSDYGIHWVRQAPGKGLEWVSYIRSDSSIIHYADTVKGRFTISRDNAKNSLYLQMNSLRAEDTAVYYCARGRDRGYFDYWGQGTLVTVSS VL: EIVLTQSPATLSLSPGERATLSCSASSSVSYMYWYQQKPGQAPRPWIYLTSNLASGVPARFSGSGSGTDFTLTISSLEPEDFAVYYCQQWTSIPFTFGQGTKVEIKR | 296 | 0.25 | 0.000284 | 1.14e+06 | – | –
2 | murine anti-hIL-4R alpha monoclonal antibody 75 (antibody, V domains shown, Mouse hybridoma antibody purified on ProteinG) VH: EVQLQQSGPELVKPGASVKIPCKASGYTFTDYNMDWVKQSHGKSLEWIGDINPNNGNILFNQKFKGKATLTVDKSSSTAYVELRSLTSEDTAVYYCGRGGLRRRGFMDYWGQGTSVTVSS VL: QIVLSQSPAILSASPGEKVTMTCRASSSVSYMHWYQQKPGSSPKPWIYAASNLASGVPARFSGSGSGTSYSLTISRVEAEDAATYYCQQWSSNPPTFGGGTKLEIK | – | – | – | – | 0.0129 | 29
3 | murine anti-hIL-4R alpha monoclonal antibody 83 (antibody, V domains shown, Mouse hybridoma antibody purified on ProteinG) VH: EVQLQQSGPELVKPGASVKIPCKASGYTFTDYNMDWVKQSRGKSLEWIGTINPNNGDTMYNQKFKDKATLTVDKSSTTAYMELRSLTSEDTAVYYCGRGGLRRRGFMDYWGRGTSVTVSS VL: QIVLSQSPAILSASPGEKVTMTCRASSSVIYIHWYQQKPGSSPKPWIYAISNLASGVPARFSGSGSGTSYFLTISRVEVEDAATYYCQQWSVNPPTFGGGTKLEIK | – | – | – | – | 0.0123 | 36.6
4 | humanized anti-hIL-4R alpha monoclonal antibody 29-Hu (antibody, human IgG4 S228P, kappa, V domains shown, Humanized, human IgG4 constant region; expressed in HEK293, purified on ProteinA) VH: EVQLVESGGGLVQPGGSLRLSCAASGFTFSDYGMHWVRQAPGKGLEWVAYINSGSSKIYHADTVKGRFTISRDNAKNSLYLQMNSLRAEDTAVYYCARFPTVVAARYPMDYWGQGTLVTVSS VL: DIQMTQSPSSLSASVGDRVTITCRASQDISNYLNWYQQKPGKAPKLLIYFTSRLHSGVPSRFSGSGSGTDYTLTISSLQPEDFATYYCQQGNTLPYTFGQGTKLEIKR | 156 | 0.526 | 0.00021 | 398000 | – | –
5 | humanized anti-hIL-4R alpha monoclonal antibody 131-Hu (antibody, human IgG4 S228P, kappa, V domains shown, Humanized, human IgG4 constant region; expressed in HEK293, purified on ProteinA) VH: EVQLVESGGGLVQPGGSLRLSCAASGFTFSDYGMHWVRQAPGKGLEWVSYISSGSSTIYYADTVKGRFTISRDNAKNSLYLQMNSLRAEDTAVYYCARISTVVAKRYAMDYWGQGTLVTVSS VL: DIQMTQSPSSLSASVGDRVTITCRASQDISNYLNWYQQKPGKAPKLLIYYTSRLHSGVPSRFSGSGSGTDFTLTISSLQPEDIATYYCQEVNMLPFTFGQGTKVEIKR | 90.6 | 0.33 | 0.000111 | 335000 | – | –
6 | humanized anti-hIL-4R alpha monoclonal antibody 136-Hu (antibody, human IgG4 S228P, kappa, V domains shown, Humanized, human IgG4 constant region; expressed in HEK293, purified on ProteinA) VH: EVQLVESGGGLVQPGGSLRLSCAASGFTFSDYGMHWVRQAPGKGLEWVSYISSGSTTIYYADTVKGRFTISRDNAKNSLYLQMNSLRAEDTAVYYCARISTVVAKRYAMDYWGQGTLVTVSS VL: DIQMTQSPSSLSASVGDRVTITCRASQDISNYLNWYQQKPGKAPKLLIYYTSRLHSGVPSRFSGSGSGTDFTLTISSLQPEDIATYYCQQINALPFTFGQGTKLEIKR | 84.3 | 0.154 | 9.8e-05 | 635000 | – | –

More lines, now with the values ahead:

Row | IC50 (ng/ml), inhibition of IL-4-induced TF-1 cell proliferation [1] [ng/mL] | Kd (hIL-4R alpha-ECD-Flag) [nM] | koff (hIL-4R alpha-ECD-Flag) [s⁻¹] | kon (hIL-4R alpha-ECD-Flag) [M⁻¹ s⁻¹] | EC50 (hIL-4R alpha-ECD-Fc) [µg/mL] | IC50 (ng/ml), inhibition of IL-4-induced TF-1 proliferation [2] [ng/mL] | Binder
7 | 54.6 | 0.173 | 0.000255 | 1.48e+06 | – | – | humanized anti-hIL-4R alpha monoclonal antibody 236-Hu (antibody, human IgG4 S228P, kappa, V domains shown, Humanized, human IgG4 constant region; expressed in HEK293, purified on ProteinA) VH: QVQLVQSGAEVKKPGASVKVSCKASGYTFTDYNVDWVRQAPGQGLEWIGTINPNNGGILSNQKFKGRVTITVDTSASTAYMELSSLRSEDTAVYYCGRGGLRRRGFMDYWGQGTLVTVSS VL: EIVLTQSPATLSLSPGERATLSCRASSSVIYIHWYQQKPGQAPRPWIYAASNLPSGVPARFSGSGSGTDFTLTISSLEPEDFAVYYCQQWSSNPPTFGQGTKVEIKR
8 | – | – | – | – | 0.0079 | 23.6 | murine anti-hIL-4R alpha monoclonal antibody 57 (antibody, V domains shown, Mouse hybridoma antibody purified on ProteinG) VH: EVQLQQSGPELVKPGASVKIPCKASGYTFTDYNMDWVKQSHGKSLEWIGDINPNNGNILFNQKFKGKATLTVDKSSSTAYVELRSLTSEDTAVYYCGRGGLRRRGFMDYWGQGTSVTVSS VL: QIVLSQSPAILSASPGEKVTMTCRASSSVSYMHWYQQKPGSSPKPWIYAASNLASGVPARFSGSGSGTSYSLTISRVEAEDAATYYCQQWSSNPPTFGGGTKLEIK
9 | – | – | – | – | 0.0117 | 43.7 | murine anti-hIL-4R alpha monoclonal antibody 59 (antibody, V domains shown, Mouse hybridoma antibody purified on ProteinG) VH: EVQLVESGGGLVKPGGSLKLSCAASGFTFSDYGIHWVRQAPDKGLEWVAYIRSDSSIIHYADTVKGRFTISRDNAKNTLFLQMTSLRSEDTAMYYCTRGRDRGYFDYWGQGTTLTVSS VL: QIVLTQSPALMSASPGEKVTMTCSASSSVSYMYWYQQKPRSSPKPWIYLTSNLASGVPARFSGSGSGTSYSLTISSMEAEDAATYYCQQWTSIPFTFGSGTKLEIK
